Measured values: article PMC3000357 (PLoS Genetics, 2010)
Each block holds one binder with its values, some of them ahead of it.

Columns and labels:
RecO, purified = target: T1, RecO, purified (Bacillus subtilis, UniProt P42095 1-255); assay: pull-down; streptavidin magnetic beads with a biotinylated 65-mer ssDNA coated by purified SSB or SSBΔ6 (80 pmol of tetramer; SSBΔ35: 100 pmol of tetramer, 60 pmol of tested protein); purified protein added in 20 mM Tris-HCl pH 7.5, 200 mM NaCl, 30 min, 20°C; SDS-PAGE, Coomassie; settings: both partners purified
T1 construct: RecO recombination mediator protein of Bacillus subtilis; source: E. coli, purified (procedure in Text S1)
T1 sequence (looked up): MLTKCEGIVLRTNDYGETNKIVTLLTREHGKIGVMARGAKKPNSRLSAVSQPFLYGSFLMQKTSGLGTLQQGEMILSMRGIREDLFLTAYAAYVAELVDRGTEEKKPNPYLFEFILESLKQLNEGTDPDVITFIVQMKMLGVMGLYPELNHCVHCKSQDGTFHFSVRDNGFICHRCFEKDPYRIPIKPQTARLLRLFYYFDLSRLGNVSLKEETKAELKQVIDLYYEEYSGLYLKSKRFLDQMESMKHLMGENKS

RecG, purified = target: T2, RecG, purified (Bacillus subtilis, UniProt O34942 1-682); assay: as above; settings: both partners purified
T2 construct: RecG DNA helicase of Bacillus subtilis; source: E. coli, purified (procedure in Text S1)
T2 sequence (looked up): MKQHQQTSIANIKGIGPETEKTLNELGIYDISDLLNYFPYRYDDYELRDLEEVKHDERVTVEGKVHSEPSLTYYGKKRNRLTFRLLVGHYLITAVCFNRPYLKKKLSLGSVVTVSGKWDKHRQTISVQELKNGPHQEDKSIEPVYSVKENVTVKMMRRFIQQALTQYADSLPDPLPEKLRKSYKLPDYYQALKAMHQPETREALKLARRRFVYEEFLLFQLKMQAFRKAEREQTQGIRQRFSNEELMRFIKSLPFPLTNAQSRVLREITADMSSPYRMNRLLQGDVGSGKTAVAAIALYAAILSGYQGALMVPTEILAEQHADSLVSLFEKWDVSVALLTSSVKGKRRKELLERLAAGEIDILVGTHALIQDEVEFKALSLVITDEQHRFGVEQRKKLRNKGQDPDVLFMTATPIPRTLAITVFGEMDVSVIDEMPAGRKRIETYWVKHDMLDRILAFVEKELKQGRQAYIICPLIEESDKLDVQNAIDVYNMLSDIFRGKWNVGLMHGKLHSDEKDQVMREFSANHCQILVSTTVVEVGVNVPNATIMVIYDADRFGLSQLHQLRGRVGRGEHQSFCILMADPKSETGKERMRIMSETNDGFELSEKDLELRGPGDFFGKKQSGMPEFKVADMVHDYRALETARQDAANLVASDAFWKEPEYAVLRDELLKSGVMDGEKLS

PriA, purified = target: T3, PriA, purified (Bacillus subtilis, UniProt P94461 1-805); assay: as above; settings: both partners purified
T3 construct: PriA, primary replication restart protein (DNA helicase) of Bacillus subtilis; source: E. coli, purified (procedure in Text S1)
T3 sequence (looked up): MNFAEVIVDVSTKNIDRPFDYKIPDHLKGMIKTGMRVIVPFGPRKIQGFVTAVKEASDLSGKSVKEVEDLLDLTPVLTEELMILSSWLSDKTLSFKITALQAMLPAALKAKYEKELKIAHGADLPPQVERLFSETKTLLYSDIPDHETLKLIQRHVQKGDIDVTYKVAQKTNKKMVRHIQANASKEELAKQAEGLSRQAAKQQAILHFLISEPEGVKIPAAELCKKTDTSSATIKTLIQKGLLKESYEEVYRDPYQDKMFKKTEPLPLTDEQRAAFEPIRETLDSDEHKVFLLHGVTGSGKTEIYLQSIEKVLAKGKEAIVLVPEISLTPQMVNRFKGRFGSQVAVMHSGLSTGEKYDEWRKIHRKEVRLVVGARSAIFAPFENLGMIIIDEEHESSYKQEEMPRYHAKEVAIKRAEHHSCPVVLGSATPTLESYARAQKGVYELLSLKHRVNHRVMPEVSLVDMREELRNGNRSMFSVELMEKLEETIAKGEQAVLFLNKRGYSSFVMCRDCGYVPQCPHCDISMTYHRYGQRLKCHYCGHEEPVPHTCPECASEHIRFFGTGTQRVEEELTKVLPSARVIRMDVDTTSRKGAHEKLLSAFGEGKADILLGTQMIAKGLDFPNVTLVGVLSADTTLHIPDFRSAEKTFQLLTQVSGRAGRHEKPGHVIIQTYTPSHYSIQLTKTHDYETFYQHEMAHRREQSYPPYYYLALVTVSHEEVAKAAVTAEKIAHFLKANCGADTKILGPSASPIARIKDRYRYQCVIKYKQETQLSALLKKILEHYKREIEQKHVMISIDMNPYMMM

RecQ, purified = target: T4, RecQ, purified (Bacillus subtilis, UniProt O34748 1-591); assay: as above; settings: both partners purified
T4 construct: RecQ DNA helicase (initially annotated YocI) of Bacillus subtilis; also called YocI; source: E. coli, purified (procedure in Text S1)
T4 sequence (looked up): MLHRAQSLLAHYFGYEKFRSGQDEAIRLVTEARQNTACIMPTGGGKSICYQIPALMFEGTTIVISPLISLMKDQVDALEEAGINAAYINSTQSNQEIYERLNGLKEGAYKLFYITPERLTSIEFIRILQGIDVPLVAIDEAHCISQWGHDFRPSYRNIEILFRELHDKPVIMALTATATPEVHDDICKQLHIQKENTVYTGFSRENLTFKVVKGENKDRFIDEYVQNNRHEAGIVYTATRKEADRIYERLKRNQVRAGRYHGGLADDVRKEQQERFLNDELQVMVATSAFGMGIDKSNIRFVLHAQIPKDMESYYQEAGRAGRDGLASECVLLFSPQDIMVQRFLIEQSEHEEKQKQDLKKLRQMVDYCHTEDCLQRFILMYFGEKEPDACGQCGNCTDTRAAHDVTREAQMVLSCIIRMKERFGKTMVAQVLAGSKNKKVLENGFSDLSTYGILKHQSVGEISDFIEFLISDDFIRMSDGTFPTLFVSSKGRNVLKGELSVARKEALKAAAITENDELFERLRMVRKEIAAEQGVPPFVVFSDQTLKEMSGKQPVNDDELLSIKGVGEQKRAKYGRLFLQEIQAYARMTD

[1] = target: T5, YpbB/RecS complex, purified (Bacillus subtilis, UniProt P50728 1-352; P50729 1-496); assay: SEC; purified RecS (4 µM) or YpbB/RecS (4 µM) mixed on ice with SSB (16 µM or 40 µM, as monomers) and loaded onto a gel-filtration column; fractions on SDS-PAGE, Coomassie; settings: both partners purified
T5 construct: YpbB of Bacillus subtilis; RecS (YpbC) of Bacillus subtilis; Equivalent amounts of YpbB and RecS appear to be present in the complex
T5 sequence (looked up) 1: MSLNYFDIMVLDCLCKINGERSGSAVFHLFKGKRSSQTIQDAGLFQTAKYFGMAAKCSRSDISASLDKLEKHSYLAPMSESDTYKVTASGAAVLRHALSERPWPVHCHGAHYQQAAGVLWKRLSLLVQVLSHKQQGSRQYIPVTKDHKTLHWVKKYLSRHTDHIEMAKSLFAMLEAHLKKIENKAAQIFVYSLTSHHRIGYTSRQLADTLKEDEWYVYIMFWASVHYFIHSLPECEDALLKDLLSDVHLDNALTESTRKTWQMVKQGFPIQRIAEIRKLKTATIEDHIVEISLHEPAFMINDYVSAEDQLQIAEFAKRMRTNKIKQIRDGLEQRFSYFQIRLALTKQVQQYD
T5 sequence (looked up) 2: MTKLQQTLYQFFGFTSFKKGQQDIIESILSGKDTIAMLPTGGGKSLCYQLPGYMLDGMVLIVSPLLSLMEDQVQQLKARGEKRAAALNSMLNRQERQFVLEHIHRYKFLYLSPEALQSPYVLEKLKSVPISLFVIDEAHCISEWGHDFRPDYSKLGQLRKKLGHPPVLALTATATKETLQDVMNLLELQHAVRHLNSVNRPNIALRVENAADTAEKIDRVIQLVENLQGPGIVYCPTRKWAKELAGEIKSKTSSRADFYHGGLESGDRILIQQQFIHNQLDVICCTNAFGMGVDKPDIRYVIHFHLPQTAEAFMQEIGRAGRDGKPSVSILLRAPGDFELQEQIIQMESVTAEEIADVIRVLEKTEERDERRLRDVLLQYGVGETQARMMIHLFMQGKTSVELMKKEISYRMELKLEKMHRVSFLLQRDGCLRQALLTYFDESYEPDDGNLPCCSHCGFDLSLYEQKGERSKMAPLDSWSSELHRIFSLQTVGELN

RecS, purified = target: T6, RecS, purified (Bacillus subtilis, UniProt P50729 1-496); assay: as above; settings: both partners purified
T6 construct: RecS (also annotated YpbC), RecQ paralogue of Bacillus subtilis; theoretical mass 57 kDa; also called YpbC; source: E. coli, purified (procedure in Text S1)
T6 sequence (looked up): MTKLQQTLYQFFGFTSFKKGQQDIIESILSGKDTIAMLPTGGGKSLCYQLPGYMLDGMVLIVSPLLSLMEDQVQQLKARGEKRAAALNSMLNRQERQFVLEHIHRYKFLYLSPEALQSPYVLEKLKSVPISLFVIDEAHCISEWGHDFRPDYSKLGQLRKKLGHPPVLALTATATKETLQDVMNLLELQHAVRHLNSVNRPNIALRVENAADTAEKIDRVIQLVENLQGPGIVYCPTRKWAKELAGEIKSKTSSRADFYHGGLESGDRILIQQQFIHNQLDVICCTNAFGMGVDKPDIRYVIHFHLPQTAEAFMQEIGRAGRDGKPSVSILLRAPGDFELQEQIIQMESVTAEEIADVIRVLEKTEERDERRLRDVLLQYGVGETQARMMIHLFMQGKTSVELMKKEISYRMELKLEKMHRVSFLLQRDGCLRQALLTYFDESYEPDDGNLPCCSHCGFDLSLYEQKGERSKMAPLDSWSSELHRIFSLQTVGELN

SSB = target: T7, SSB (Bacillus subtilis, UniProt P37455 1-172); assay: pull-down on ssDNA magnetic beads; 50 pmol oligo, 80 pmol SSB; 20 mM Tris-HCl pH 7.5, 200 mM NaCl, 20 °C, 800 rpm; beads washed in same buffer; settings: protein: recombinant; chain copies: 4; label: 5' biotin, on streptavidin magnetic beads; single strand
T7 sequence: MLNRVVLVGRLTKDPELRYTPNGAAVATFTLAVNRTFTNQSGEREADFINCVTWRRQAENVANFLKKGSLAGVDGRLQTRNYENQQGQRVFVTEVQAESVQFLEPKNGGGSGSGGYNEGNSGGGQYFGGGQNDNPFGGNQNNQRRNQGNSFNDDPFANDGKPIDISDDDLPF

SSBΔ6 = target: T8, SSBΔ6 (Bacillus subtilis, UniProt P37455 1-166); assay: pull-down on ssDNA magnetic beads; 50 pmol oligo, 80 pmol SSBΔ6; 20 mM Tris-HCl pH 7.5, 200 mM NaCl, 20 °C, 800 rpm; beads washed in same buffer; settings: protein: recombinant; chain copies: 4; label: 5' biotin, on streptavidin magnetic beads; single strand
T8 sequence: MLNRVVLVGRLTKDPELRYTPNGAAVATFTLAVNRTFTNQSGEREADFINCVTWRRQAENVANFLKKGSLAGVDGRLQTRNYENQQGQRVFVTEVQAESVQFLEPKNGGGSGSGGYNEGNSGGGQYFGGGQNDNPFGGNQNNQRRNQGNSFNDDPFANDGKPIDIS

SSBΔ35 = target: T9, SSBΔ35 (Bacillus subtilis, UniProt P37455 1-137); assay: pull-down on ssDNA magnetic beads; 20 mM Tris-HCl pH 7.5, 200 mM NaCl, 20 °C, 800 rpm; beads washed in same buffer; settings: protein: recombinant; chain copies: 4; label: 5' biotin, on streptavidin magnetic beads; single strand
T9 sequence: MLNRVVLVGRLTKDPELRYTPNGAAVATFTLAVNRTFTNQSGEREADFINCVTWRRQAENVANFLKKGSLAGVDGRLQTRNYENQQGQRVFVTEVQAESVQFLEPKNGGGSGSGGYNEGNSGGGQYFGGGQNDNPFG

binding result (RecO, purified): binds
binding result (RecG, purified): binds
binding result (PriA, purified): binds
binding result (RecQ, purified): binds
binding result [1]: binds
B1: Bacillus subtilis Single-Stranded DNA Binding protein (SSB), purified (natural protein, UniProt P37455 1-172, looked up)
chain: MLNRVVLVGRLTKDPELRYTPNGAAVATFTLAVNRTFTNQSGEREADFINCVTWRRQAENVANFLKKGSLAGVDGRLQTRNYENQQGQRVFVTEVQAESVQFLEPKNGGGSGSGGYNEGNSGGGQYFGGGQNDNPFGGNQNNQRRNQGNSFNDDPFANDGKPIDISDDDLPF
notes: Used as a tetramer; source: E. coli, purified (procedure in Text S1)

binding result (RecS, purified): binds
B2: YpbB, produced in E. coli with RecS (natural protein, Bacillus subtilis, UniProt P50728 1-352, looked up)
chain: MSLNYFDIMVLDCLCKINGERSGSAVFHLFKGKRSSQTIQDAGLFQTAKYFGMAAKCSRSDISASLDKLEKHSYLAPMSESDTYKVTASGAAVLRHALSERPWPVHCHGAHYQQAAGVLWKRLSLLVQVLSHKQQGSRQYIPVTKDHKTLHWVKKYLSRHTDHIEMAKSLFAMLEAHLKKIENKAAQIFVYSLTSHHRIGYTSRQLADTLKEDEWYVYIMFWASVHYFIHSLPECEDALLKDLLSDVHLDNALTESTRKTWQMVKQGFPIQRIAEIRKLKTATIEDHIVEISLHEPAFMINDYVSAEDQLQIAEFAKRMRTNKIKQIRDGLEQRFSYFQIRLALTKQVQQYD
notes: YpbB, protein of unknown function of Bacillus subtilis, encoded immediately upstream of recS; Could not be prepared as a soluble protein alone; source: E. coli, purified only as a complex with RecS (procedure in Text S1)

B3: 65-mer biotinylated ssDNA oligonucleotide (ssDNA)
DNA: CGTCGTTTTACAACGTCGTGACTGGGAAAACCCTGGCGTTACCCAACTTAATCGCCTTGCAGCA
modifications: biotin-TEG
binding result (SSB): binds
binding result (SSBΔ6): binds
binding result (SSBΔ35): binds
